In experiment [1] the target is T1, hNAA30^211-362 (catalytic subunit of human NatC, N-terminally truncated) (human, UniProt Q147X3 211-362).
T1 sequence (looked up): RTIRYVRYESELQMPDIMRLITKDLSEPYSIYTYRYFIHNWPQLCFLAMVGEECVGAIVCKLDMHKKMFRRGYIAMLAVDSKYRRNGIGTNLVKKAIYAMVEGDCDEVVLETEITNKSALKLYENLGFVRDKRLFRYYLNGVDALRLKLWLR
The experiment can be described thus: cryo-EM structure.

Experiment [2] concerns the target T2, hNAA35^28-725 (large auxiliary subunit of human NatC, N-terminally truncated) (human, UniProt Q5VZE5 28-725).
T2 sequence (looked up): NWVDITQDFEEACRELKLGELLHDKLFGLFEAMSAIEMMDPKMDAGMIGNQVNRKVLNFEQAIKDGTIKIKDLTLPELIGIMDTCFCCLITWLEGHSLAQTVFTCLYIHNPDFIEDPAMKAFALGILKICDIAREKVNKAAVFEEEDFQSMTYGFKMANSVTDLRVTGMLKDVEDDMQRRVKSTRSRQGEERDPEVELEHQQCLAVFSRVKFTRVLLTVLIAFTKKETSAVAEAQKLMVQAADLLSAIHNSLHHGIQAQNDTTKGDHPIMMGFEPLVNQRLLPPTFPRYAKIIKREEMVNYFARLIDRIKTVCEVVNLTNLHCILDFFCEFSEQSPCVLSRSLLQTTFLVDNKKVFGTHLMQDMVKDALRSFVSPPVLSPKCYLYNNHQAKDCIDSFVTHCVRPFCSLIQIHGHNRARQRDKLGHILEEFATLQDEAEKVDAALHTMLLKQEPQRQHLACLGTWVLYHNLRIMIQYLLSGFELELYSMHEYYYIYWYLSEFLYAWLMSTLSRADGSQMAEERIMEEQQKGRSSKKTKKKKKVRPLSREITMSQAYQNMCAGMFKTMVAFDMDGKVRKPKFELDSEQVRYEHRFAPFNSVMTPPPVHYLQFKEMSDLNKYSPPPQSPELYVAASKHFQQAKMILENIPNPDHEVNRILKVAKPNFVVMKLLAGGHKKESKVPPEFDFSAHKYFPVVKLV
The experiment can be described thus: cryo-EM structure.

B1: CoA-Ac-MLGPE-NH2 bisubstrate inhibitor (peptide)
peptide: {CoA‑Ac}-MLGPE-NH2
B1: the binding result in experiment [1] is given as “binds”.

B2: hNAA38^1-125 (small auxiliary subunit of human NatC, full length) (natural protein, UniProt Q9BRA0 1-125, looked up)
chain: MAGAGPTMLLREENGCCSRRQSSSSAGDSDGEREDSAAERARQQLEALLNKTMRIRMTDGRTLVGCFLCTDRDCNVILGSAQEFLKPSDSFSAGEPRVLGLAMVPGHHIVSIEVQRESLTGPPYL
As to B2, the binding result in experiment [2] is given as “binds”.
